In publication PMC11532494 (Nature Communications, 2024):
Several values for one entry are separate records, joined by “and”; a condition that tells them apart may be missing. Equal entries are not always repeated. Where two headings read alike, the source gives them in different places. No end group written: not given here. *: point of attachment. AMC = Cc1cc(=O)oc2cc(N*)ccc12

How the values were obtained:
LpApaH (3) = LpApaH (3) (Legionella pneumophila, UniProt A0A2S6EWV0); format: biochemical
KpHdaH (1b) = KpHdaH (1b) (Klebsiella pneumoniae, UniProt A0A377Z5F6); format: biochemical; conditions: for RFU means, KpHdaH (1b) / RFU*2 means, KpHdaH (1b): means of two measurements; for [AMC] (nM), KpHdaH (1b), means / [AMC] (nM), KpHdaH (1b): substrate screening; for [AMC] (nM), KpHdaH (1b), means: mean of two measurements
Controls [1] = format: biochemical
Controls [2] = format: biochemical; remark: listed apart in the source
LcApaH (3) = LcApaH (3) (Legionella cherrii, UniProt A0A0W0SGS1); format: biochemical
VcHdaH (5b) = format: biochemical, Vibrio cholerae; conditions: for RFU means, VcHdaH (5b) / RFU*2 means, VcHdaH (5b): means of two measurements; for [AMC] (nM), VcHdaH (5b), means: substrate screening, mean of two measurements
BsAcuC (2c) = molecular target: T1, BsAcuC (2c) (Bacillus subtilis, UniProt P39067); experiment: Substrate screening assay (acyl-peptide-AMC); format: biochemical; conditions: for RFU means, BsAcuC (2c) / RFU*2 means, BsAcuC (2c): means of two measurements; for [AMC] (nM), BsAcuC (2c), means: substrate screening, mean of two measurements
T1 construct: made in house; host or cells: E. coli BL21 (DE3)
T1 sequence (P39067 1-387): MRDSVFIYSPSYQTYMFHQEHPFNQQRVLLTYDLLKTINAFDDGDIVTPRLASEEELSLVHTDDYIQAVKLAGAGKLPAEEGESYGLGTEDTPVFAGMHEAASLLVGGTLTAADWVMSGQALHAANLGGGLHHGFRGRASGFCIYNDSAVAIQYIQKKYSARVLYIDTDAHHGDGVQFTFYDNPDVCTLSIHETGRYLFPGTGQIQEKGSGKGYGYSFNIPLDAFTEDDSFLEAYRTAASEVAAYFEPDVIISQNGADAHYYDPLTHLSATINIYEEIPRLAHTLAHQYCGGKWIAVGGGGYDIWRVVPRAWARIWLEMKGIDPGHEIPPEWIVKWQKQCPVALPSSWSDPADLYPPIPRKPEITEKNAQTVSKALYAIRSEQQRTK
Description: (§1) Experiments with SIRT2 and SIRT5 were supplemented with NAD^+ (500 µM). Thereafter, a solution of trypsin (25 µL, 5.0 mg/mL; final concentration of 2.5 mg/mL) was added, and the development of the assay was allowed to proceed for 90 min at room temperature before fluorescence analysis. […] To this end, a single category is given to all conversions >48% on the heatmap. […] For the H4-derived peptide LGKbio no positive control was available.

PsApaH (4) = PsApaH (4) (Pseudomonas sp. M30-35, UniProt A0A1Y0KY79); format: biochemical; conditions: for RFU means, PsApaH (4) / RFU*2 means, PsApaH (4): means of two measurements; for [AMC] (nM), PsApaH (4), means / [AMC] (nM), PsApaH (4): substrate screening; for [AMC] (nM), PsApaH (4), means: mean of two measurements
Description: as §1

VsHdaH (1b) = format: biochemical, Vibrio sp.; conditions: for RFU means, VsHdaH (1b) / RFU*2 means, VsHdaH (1b): means of two measurements; for [AMC] (nM), VsHdaH (1b), means / [AMC] (nM), VsHdaH (1b): substrate screening; for [AMC] (nM), VsHdaH (1b), means: mean of two measurements
RwDmhA (1b) = RwDmhA (1b) (Rhizorhabdus wittichii, UniProt A0A067XIQ6); format: biochemical
RsPrpH (1b) = experiment: Substrate screening assay (acyl-peptide-AMC); format: biochemical, Rhizorhabdus sp.
[3] = two measurements, single values
[4] = substrate screening, mean of two measurements
[5] = substrate screening, measurement 1 of two
[6] = substrate screening, measurement 2 of two

Substance: QPKKmyr (QPKK-{AMC}; not fully specified (residue 4); printed as QPKKmyr; also: myristoyl-lysine (which Lys not given here); UniProt P04637 317-320, looked up, fragment)
- RFU means, LpApaH (3) (LpApaH (3)): 459 RFU
- RFU*2, LpApaH (3) (LpApaH (3)): 820 RFU*2 and 1016 RFU*2
- RFU*2 means, LpApaH (3) (LpApaH (3)): 918 RFU*2
- RFU, LpApaH (3) (LpApaH (3)): 410 RFU and 508 RFU
- [AMC] (nM), LpApaH (3) (LpApaH (3)): 400.39 nM and 496.09 nM
- [AMC] (nM), LpApaH (3), means (LpApaH (3)): 448.24 nM
- RFU means, KpHdaH (1b) (KpHdaH (1b)): 147 RFU
- RFU*2 means, KpHdaH (1b) (KpHdaH (1b)): 294 RFU*2
- [AMC] (nM), KpHdaH (1b), means (KpHdaH (1b)): 143.55 nM
- [AMC] (nM), KpHdaH (1b) (KpHdaH (1b); measurement 1 of two): 173.83 nM
- [AMC] (nM), KpHdaH (1b) (KpHdaH (1b); measurement 2 of two): 113.28 nM
- RFU*2, KpHdaH (1b) (KpHdaH (1b); [3]): 356 RFU*2 and 232 RFU*2
- RFU, KpHdaH (1b) (KpHdaH (1b); [3]): 178 RFU and 116 RFU
- RFU means, controls (Controls [1]): 6774 RFU
- RFU*2, controls (Controls [1]): 12310 RFU*2 and 14786 RFU*2
- RFU*2 means, controls (Controls [1]): 13548 RFU*2
- RFU, controls (Controls [1]): 6155 RFU and 7393 RFU
- [AMC] (nM), controls, means (Controls [2]): 6615.23 nM
- RFU means, LcApaH (3) (LcApaH (3)): 256.5 RFU
- RFU*2 means, LcApaH (3) (LcApaH (3)): 513 RFU*2
- [AMC] (nM), LcApaH (3), means (LcApaH (3)): 250.49 nM
- RFU means, VcHdaH (5b) (VcHdaH (5b)): -187.5 RFU
- RFU*2 means, VcHdaH (5b) (VcHdaH (5b)): -375 RFU*2
- [AMC] (nM), VcHdaH (5b), means (VcHdaH (5b)): -183.11 nM
- RFU means, BsAcuC (2c) (BsAcuC (2c)): 540 RFU
- RFU*2 means, BsAcuC (2c) (BsAcuC (2c)): 1080 RFU*2
- [AMC] (nM), BsAcuC (2c), means (BsAcuC (2c)): 527.34 nM
- RFU means, PsApaH (4) (PsApaH (4)): 76.5 RFU
- RFU*2 means, PsApaH (4) (PsApaH (4)): 153 RFU*2
- [AMC] (nM), PsApaH (4), means (PsApaH (4)): 74.71 nM
- [AMC] (nM), PsApaH (4) (PsApaH (4); measurement 1 of two): 39.06 nM
- [AMC] (nM), PsApaH (4) (PsApaH (4); measurement 2 of two): 110.35 nM
- RFU means, VsHdaH (1b) (VsHdaH (1b)): -206 RFU
- RFU*2 means, VsHdaH (1b) (VsHdaH (1b)): -412 RFU*2
- [AMC] (nM), VsHdaH (1b), means (VsHdaH (1b)): -201.17 nM
- [AMC] (nM), VsHdaH (1b) (VsHdaH (1b); measurement 1 of two): 172.85 nM
- [AMC] (nM), VsHdaH (1b) (VsHdaH (1b); measurement 2 of two): -575.20 nM
- RFU means, RwDmhA (1b) (RwDmhA (1b); means of two measurements): -605.5 RFU
- RFU*2 means, RwDmhA (1b) (RwDmhA (1b); means of two measurements): -1211 RFU*2
- [AMC] (nM), RwDmhA (1b), means (RwDmhA (1b); [4]): -591.31 nM
- [AMC] (nM), RwDmhA (1b) (RwDmhA (1b); [5]): -337.89 nM
- [AMC] (nM), RwDmhA (1b) (RwDmhA (1b); [6]): -844.73 nM
- RFU means, RsPrpH (1b) (RsPrpH (1b); means of two measurements): -466 RFU
- RFU*2 means, RsPrpH (1b) (RsPrpH (1b); means of two measurements): -932 RFU*2
- [AMC] (nM), RsPrpH (1b), means (RsPrpH (1b); [4]): -455.08 nM
- [AMC] (nM), RsPrpH (1b) (RsPrpH (1b); [5]): -105.47 nM
- [AMC] (nM), RsPrpH (1b) (RsPrpH (1b); [6]): -804.69 nM

Substance: QPKKpal (QPKK-{AMC}; not fully specified (residue 4); printed as QPKKpal; also: palmitoyl-lysine (which Lys not given here); UniProt P04637 317-320, looked up, fragment)
- RFU means, LpApaH (3) (LpApaH (3)): 16 RFU
- RFU*2 means, LpApaH (3) (LpApaH (3)): 32 RFU*2
- [AMC] (nM), LpApaH (3), means (LpApaH (3)): 15.63 nM
- RFU means, KpHdaH (1b) (KpHdaH (1b)): 2.5 RFU
- RFU*2 means, KpHdaH (1b) (KpHdaH (1b)): 5 RFU*2
- [AMC] (nM), KpHdaH (1b), means (KpHdaH (1b)): 2.44 nM
- [AMC] (nM), KpHdaH (1b) (KpHdaH (1b); measurement 1 of two): 8.79 nM
- [AMC] (nM), KpHdaH (1b) (KpHdaH (1b); measurement 2 of two): -3.91 nM
- RFU means, controls (Controls [1]): 9515.5 RFU
- RFU*2, controls (Controls [1]): 16530 RFU*2 and 21532 RFU*2
- RFU*2 means, controls (Controls [1]): 19031 RFU*2
- RFU, controls (Controls [1]): 8265 RFU and 10766 RFU
- [AMC] (nM), controls, means (Controls [2]): 9292.48 nM
- RFU means, LcApaH (3) (LcApaH (3)): 26.5 RFU
- RFU*2 means, LcApaH (3) (LcApaH (3)): 53 RFU*2
- [AMC] (nM), LcApaH (3), means (LcApaH (3)): 25.88 nM
- RFU means, VcHdaH (5b) (VcHdaH (5b)): -8.5 RFU
- RFU*2 means, VcHdaH (5b) (VcHdaH (5b)): -17 RFU*2
- [AMC] (nM), VcHdaH (5b), means (VcHdaH (5b)): -8.30 nM
- RFU means, BsAcuC (2c) (BsAcuC (2c)): 77 RFU
- RFU*2 means, BsAcuC (2c) (BsAcuC (2c)): 154 RFU*2
- [AMC] (nM), BsAcuC (2c), means (BsAcuC (2c)): 75.20 nM
- RFU means, PsApaH (4) (PsApaH (4)): 27 RFU
- RFU*2 means, PsApaH (4) (PsApaH (4)): 54 RFU*2
- [AMC] (nM), PsApaH (4), means (PsApaH (4)): 26.37 nM
- [AMC] (nM), PsApaH (4) (PsApaH (4); measurement 1 of two): 39.06 nM
- [AMC] (nM), PsApaH (4) (PsApaH (4); measurement 2 of two): 13.67 nM
- RFU means, VsHdaH (1b) (VsHdaH (1b)): 11 RFU
- RFU*2 means, VsHdaH (1b) (VsHdaH (1b)): 22 RFU*2
- [AMC] (nM), VsHdaH (1b), means (VsHdaH (1b)): 10.74 nM
- [AMC] (nM), VsHdaH (1b) (VsHdaH (1b); measurement 1 of two): 40.04 nM
- [AMC] (nM), VsHdaH (1b) (VsHdaH (1b); measurement 2 of two): -18.55 nM
- RFU means, RwDmhA (1b) (RwDmhA (1b)): -48 RFU
- RFU*2 means, RwDmhA (1b) (RwDmhA (1b)): -96 RFU*2
- [AMC] (nM), RwDmhA (1b), means (RwDmhA (1b)): -46.88 nM
- RFU means, RsPrpH (1b) (RsPrpH (1b)): -58.5 RFU
- RFU*2 means, RsPrpH (1b) (RsPrpH (1b)): -117 RFU*2
- [AMC] (nM), RsPrpH (1b), means (RsPrpH (1b)): -57.13 nM
